Data on 1 molecule can be found in patent US20230235005A1 (INHIBRX, published 2023).

The target of assay [1] is T1, heterotrimeric IL-2R (CD25, CD122 and CD132) on transiently transfected 293F cells (UniProt P01589 22-272; P14784 27-551; P31785 23-369, limits assumed).
T1 construct: whole, on cells
T1 sequence (looked up) 1: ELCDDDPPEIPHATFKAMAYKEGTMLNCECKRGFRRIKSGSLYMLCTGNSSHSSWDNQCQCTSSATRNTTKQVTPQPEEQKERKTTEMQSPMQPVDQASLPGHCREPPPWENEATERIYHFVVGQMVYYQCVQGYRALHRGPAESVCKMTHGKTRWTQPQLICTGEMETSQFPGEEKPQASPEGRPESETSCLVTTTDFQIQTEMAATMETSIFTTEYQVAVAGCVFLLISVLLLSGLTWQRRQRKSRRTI
T1 sequence (looked up) 2: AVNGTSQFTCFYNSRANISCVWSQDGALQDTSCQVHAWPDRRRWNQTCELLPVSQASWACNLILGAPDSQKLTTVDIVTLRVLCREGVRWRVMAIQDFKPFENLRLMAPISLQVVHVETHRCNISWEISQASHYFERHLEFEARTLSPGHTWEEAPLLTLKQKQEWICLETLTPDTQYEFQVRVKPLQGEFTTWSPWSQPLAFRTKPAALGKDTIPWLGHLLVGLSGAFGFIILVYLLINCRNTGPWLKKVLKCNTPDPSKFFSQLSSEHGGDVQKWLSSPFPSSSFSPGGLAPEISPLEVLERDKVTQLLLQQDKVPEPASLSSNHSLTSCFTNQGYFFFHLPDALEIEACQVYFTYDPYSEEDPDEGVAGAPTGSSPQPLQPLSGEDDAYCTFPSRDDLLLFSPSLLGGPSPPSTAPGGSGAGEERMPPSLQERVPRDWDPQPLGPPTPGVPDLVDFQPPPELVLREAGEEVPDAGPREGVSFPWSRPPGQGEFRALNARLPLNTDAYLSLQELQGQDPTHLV
T1 sequence (looked up) 3: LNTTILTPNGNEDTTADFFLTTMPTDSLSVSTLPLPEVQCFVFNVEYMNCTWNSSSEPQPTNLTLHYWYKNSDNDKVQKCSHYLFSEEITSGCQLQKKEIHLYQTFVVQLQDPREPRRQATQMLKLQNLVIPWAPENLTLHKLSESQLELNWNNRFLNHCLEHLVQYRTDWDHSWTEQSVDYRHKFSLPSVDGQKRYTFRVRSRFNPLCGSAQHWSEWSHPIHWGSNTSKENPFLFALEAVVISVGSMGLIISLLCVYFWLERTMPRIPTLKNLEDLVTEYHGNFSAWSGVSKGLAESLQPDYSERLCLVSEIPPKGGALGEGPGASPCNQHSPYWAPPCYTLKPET
The assay can be described thus: flow cytometry on transiently transfected 293F cells.

Assay [2] addresses T2, CD122/CD132 (heterodimeric IL-2R) on transiently transfected 293F cells (UniProt P14784 27-551; P31785 23-369, limits assumed).
T2 construct: whole, on cells; also called CD122 and CD132
T2 sequence (looked up) 1: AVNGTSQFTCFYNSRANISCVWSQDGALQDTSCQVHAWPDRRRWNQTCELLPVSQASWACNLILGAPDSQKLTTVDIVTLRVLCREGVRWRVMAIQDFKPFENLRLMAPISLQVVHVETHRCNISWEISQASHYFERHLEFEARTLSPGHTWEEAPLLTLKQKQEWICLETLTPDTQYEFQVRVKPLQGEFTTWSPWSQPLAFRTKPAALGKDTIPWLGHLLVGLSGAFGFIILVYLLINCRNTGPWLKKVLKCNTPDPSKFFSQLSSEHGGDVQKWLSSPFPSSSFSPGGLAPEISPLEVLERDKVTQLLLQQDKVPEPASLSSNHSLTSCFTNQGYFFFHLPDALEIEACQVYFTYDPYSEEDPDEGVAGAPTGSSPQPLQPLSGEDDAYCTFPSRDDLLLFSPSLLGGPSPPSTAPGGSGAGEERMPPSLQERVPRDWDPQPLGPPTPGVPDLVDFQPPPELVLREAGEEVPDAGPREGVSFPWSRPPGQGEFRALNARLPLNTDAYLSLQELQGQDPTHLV
T2 sequence (looked up) 2: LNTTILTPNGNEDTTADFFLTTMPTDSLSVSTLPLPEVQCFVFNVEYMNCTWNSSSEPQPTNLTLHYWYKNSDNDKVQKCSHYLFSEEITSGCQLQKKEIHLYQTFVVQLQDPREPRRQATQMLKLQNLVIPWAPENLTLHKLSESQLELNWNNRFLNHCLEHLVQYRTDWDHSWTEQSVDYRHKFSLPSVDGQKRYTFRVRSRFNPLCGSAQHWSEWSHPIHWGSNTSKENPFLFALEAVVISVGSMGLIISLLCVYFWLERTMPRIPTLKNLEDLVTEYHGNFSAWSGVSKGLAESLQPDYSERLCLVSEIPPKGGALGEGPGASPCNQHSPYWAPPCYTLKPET
The description is as above.

B1: fusion protein comprising triple mutant IL-2 P65R-H16A-D84S (IL-2-RAS) fused to the N-terminus of the knob half of a heterodimeric Fc, paired with a hole Fc (Fc fusion)
chain 1: APTSSSTKKTQLQLEALLLDLQMILNGINNYKNPKLTRMLTFKFYMPKKATELKHLQCLEEELKRLEEVLNLAQSKNFHLRPRSLISNINVIVLELKGSETTFMCEYADETATIVEFLNRWITFCQSIISTLTPGGGGDKTHTCPPCPAPGGPSVFLFPPKPKDTLMISRTPEVTCVVVDVSHEDPEVKFNWYVDGVEVHNAKTKPREEQYNSTYRVVSVLTVLHQDWLNGKEYKCKVSNKALPAPIEKTISKAKGQPREPQVYTLPPCRDELTKNQVSLWCLVKGFYPSDIAVEWESNGQPENNYKTTPPVLDSDGSFFLYSKLTVDKSRWQQGNVFSCSVMHEALHNHYTQKSLSLSPGK
chain 2: KPGGGGDKTHTCPPCPAPGGPSVFLFPPKPKDTLMRSRTPEVTCVVVDVSHEDPEVKFNWYVDGVEVHNAKTKPREEQYNSTYRVVSVLTVLHQDWLNGKEYKCKVSNKALPAPIEKTISKAKGQPREPQVCTLPPSRDELTKNQVSLSCAVKGFYPSDIAVEWESNGQPENNYKTTPPVLDSDGSFFLVSKLTVDKSRWQQGNVFSCSVMHEALHNHYTQKSLSLSPGK
notes: also called IL-2-RAS-xELL knob Fc
Regarding B1, the binding result in assay [1] and in assay [2] was “binds” each time.
